Molecular target: human CDw32 antigen (IgG Fc receptor) (human) (UniProt P12318)
Test: indirect immunofluorescence on CDw32-transfected COS cells

Chain of UniProt P12318 (P12318 34-317 H167R limits assumed, form in doubt): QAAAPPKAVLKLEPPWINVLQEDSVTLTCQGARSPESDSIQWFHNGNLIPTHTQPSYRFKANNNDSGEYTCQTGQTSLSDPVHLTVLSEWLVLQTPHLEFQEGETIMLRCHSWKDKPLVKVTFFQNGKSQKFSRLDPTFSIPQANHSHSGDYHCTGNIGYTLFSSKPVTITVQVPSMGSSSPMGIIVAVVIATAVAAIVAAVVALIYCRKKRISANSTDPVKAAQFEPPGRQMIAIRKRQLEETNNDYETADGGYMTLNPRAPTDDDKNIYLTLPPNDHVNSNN

Substance	Kd [nM]
human IgG (antibody)	100
mouse IgG (antibody)	100
